One block for each binder: values may come before it.
Key:
Experiment in all cases: SPOT array
[1] = biological target: T1, Boi1 SH3 (BOI1_YEAST), P38041
T1 chain: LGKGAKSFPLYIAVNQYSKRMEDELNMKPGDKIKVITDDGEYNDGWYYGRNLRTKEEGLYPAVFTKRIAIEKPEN

[2] = biological target: T2, Boi2 SH3 (BOI2_YEAST), P39969
T2 chain: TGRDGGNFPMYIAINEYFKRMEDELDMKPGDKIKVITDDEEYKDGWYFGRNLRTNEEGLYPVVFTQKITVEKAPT

[3] = biological target: T3, Rvs167 SH3 (RV167_YEAST), P39743
T3 chain: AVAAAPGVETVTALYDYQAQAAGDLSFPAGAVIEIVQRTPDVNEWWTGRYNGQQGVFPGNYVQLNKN

[4] = biological target: T4, Yfr024 SH3 (LSB3_YEAST), P43603
T4 chain: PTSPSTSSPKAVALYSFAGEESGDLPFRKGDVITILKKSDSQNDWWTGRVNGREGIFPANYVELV

[5] = biological target: T5, Yhr016c SH3 (YSC84_YEAST), P32793
T5 chain: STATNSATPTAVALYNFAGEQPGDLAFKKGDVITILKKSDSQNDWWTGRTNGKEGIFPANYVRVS

normalised SPOT signal, Boehringer light units (BLU); mean over the file's lines of this peptide [1]: 85.9
normalised SPOT signal, Boehringer light units (BLU); mean over the file's lines of this peptide [2]: 38.5
normalised SPOT signal, Boehringer light units (BLU); mean over the file's lines of this peptide [3]: 31.9
normalised SPOT signal, Boehringer light units (BLU); mean over the file's lines of this peptide [4]: 407
normalised SPOT signal, Boehringer light units (BLU); mean over the file's lines of this peptide [5]: 533
B1: YNL233W 804-817 (peptide)
chain: SMTPDSPVKSDLTS

normalised SPOT signal, Boehringer light units (BLU); mean over the file's lines of this peptide [1]: 120
normalised SPOT signal, Boehringer light units (BLU); mean over the file's lines of this peptide [2]: 460
normalised SPOT signal, Boehringer light units (BLU); mean over the file's lines of this peptide [3]: 2610
normalised SPOT signal, Boehringer light units (BLU); mean over the file's lines of this peptide [4]: 16600
normalised SPOT signal, Boehringer light units (BLU); mean over the file's lines of this peptide [5]: 17100
B2: YLR162W 51-64 (peptide)
chain: SMSPLPPARANKSD

normalised SPOT signal, Boehringer light units (BLU); mean over the file's lines of this peptide [1]: 77.3
normalised SPOT signal, Boehringer light units (BLU); mean over the file's lines of this peptide [2]: 119
normalised SPOT signal, Boehringer light units (BLU); mean over the file's lines of this peptide [3]: 815
normalised SPOT signal, Boehringer light units (BLU); mean over the file's lines of this peptide [4]: 6190
normalised SPOT signal, Boehringer light units (BLU); mean over the file's lines of this peptide [5]: 3680
B3: YDL029W 307-320 (peptide)
chain: SMYPGLPSRLEKEL

normalised SPOT signal, Boehringer light units (BLU); mean over the file's lines of this peptide [1]: 23.4
normalised SPOT signal, Boehringer light units (BLU); mean over the file's lines of this peptide [2]: 36.6
normalised SPOT signal, Boehringer light units (BLU); mean over the file's lines of this peptide [3]: 47.3
normalised SPOT signal, Boehringer light units (BLU); mean over the file's lines of this peptide [4]: 1300
normalised SPOT signal, Boehringer light units (BLU); mean over the file's lines of this peptide [5]: 218
B4: YML013W 181-194 (peptide)
chain: SKVPKAPTRETHIP

normalised SPOT signal, Boehringer light units (BLU); mean over the file's lines of this peptide [1]: 76.6
normalised SPOT signal, Boehringer light units (BLU); mean over the file's lines of this peptide [2]: 13.3
normalised SPOT signal, Boehringer light units (BLU); mean over the file's lines of this peptide [3]: 161
normalised SPOT signal, Boehringer light units (BLU); mean over the file's lines of this peptide [4]: 8060
normalised SPOT signal, Boehringer light units (BLU); mean over the file's lines of this peptide [5]: 2640
B5: YGR097W 457-470 (peptide)
chain: SNDPIPPPRKVSDV

normalised SPOT signal, Boehringer light units (BLU); mean over the file's lines of this peptide [1]: 2650
normalised SPOT signal, Boehringer light units (BLU); mean over the file's lines of this peptide [2]: 4640
normalised SPOT signal, Boehringer light units (BLU); mean over the file's lines of this peptide [3]: 58400
normalised SPOT signal, Boehringer light units (BLU); mean over the file's lines of this peptide [4]: 45200
normalised SPOT signal, Boehringer light units (BLU); mean over the file's lines of this peptide [5]: 103000
B6: YHL027W 505-518 (peptide)
chain: SKIPMLPSRRTMAG

normalised SPOT signal, Boehringer light units (BLU); mean over the file's lines of this peptide [1]: 47.1
normalised SPOT signal, Boehringer light units (BLU); mean over the file's lines of this peptide [2]: 37.9
normalised SPOT signal, Boehringer light units (BLU); mean over the file's lines of this peptide [3]: 37.7
normalised SPOT signal, Boehringer light units (BLU); mean over the file's lines of this peptide [4]: 162
normalised SPOT signal, Boehringer light units (BLU); mean over the file's lines of this peptide [5]: 236
B7: YML061C 386-399 (peptide)
chain: SKDPNRPTKFAFES

normalised SPOT signal, Boehringer light units (BLU); mean over the file's lines of this peptide [1]: 58.3
normalised SPOT signal, Boehringer light units (BLU); mean over the file's lines of this peptide [2]: 72.7
normalised SPOT signal, Boehringer light units (BLU); mean over the file's lines of this peptide [3]: 85.5
normalised SPOT signal, Boehringer light units (BLU); mean over the file's lines of this peptide [4]: 1230
normalised SPOT signal, Boehringer light units (BLU); mean over the file's lines of this peptide [5]: 133
B8: YIL112W 773-786 (peptide)
chain: SMEPHSPKKAKSVE

normalised SPOT signal, Boehringer light units (BLU); mean over the file's lines of this peptide [1]: 74.2
normalised SPOT signal, Boehringer light units (BLU); mean over the file's lines of this peptide [2]: 6.6
normalised SPOT signal, Boehringer light units (BLU); mean over the file's lines of this peptide [3]: 140
normalised SPOT signal, Boehringer light units (BLU); mean over the file's lines of this peptide [4]: 45000
normalised SPOT signal, Boehringer light units (BLU); mean over the file's lines of this peptide [5]: 2910
B9: YJL056C 343-356 (peptide)
chain: SKPPQLPPKSSSLR

normalised SPOT signal, Boehringer light units (BLU); mean over the file's lines of this peptide [1]: 79
normalised SPOT signal, Boehringer light units (BLU); mean over the file's lines of this peptide [2]: 38.1
normalised SPOT signal, Boehringer light units (BLU); mean over the file's lines of this peptide [3]: 80.3
normalised SPOT signal, Boehringer light units (BLU); mean over the file's lines of this peptide [4]: 97.9
normalised SPOT signal, Boehringer light units (BLU); mean over the file's lines of this peptide [5]: 158
B10: YMR145C 263-276 (peptide)
chain: SLSPKDPERARLLS

normalised SPOT signal, Boehringer light units (BLU); mean over the file's lines of this peptide [1]: 74.1
normalised SPOT signal, Boehringer light units (BLU); mean over the file's lines of this peptide [2]: 35.7
normalised SPOT signal, Boehringer light units (BLU); mean over the file's lines of this peptide [3]: 42.6
normalised SPOT signal, Boehringer light units (BLU); mean over the file's lines of this peptide [4]: 307
normalised SPOT signal, Boehringer light units (BLU); mean over the file's lines of this peptide [5]: 61.8
B11: YIL130W 110-123 (peptide)
chain: SNNPSKPRKYKTKS

normalised SPOT signal, Boehringer light units (BLU); mean over the file's lines of this peptide [1]: 7610
normalised SPOT signal, Boehringer light units (BLU); mean over the file's lines of this peptide [2]: 54.3
normalised SPOT signal, Boehringer light units (BLU); mean over the file's lines of this peptide [3]: 45.5
normalised SPOT signal, Boehringer light units (BLU); mean over the file's lines of this peptide [4]: 782
normalised SPOT signal, Boehringer light units (BLU); mean over the file's lines of this peptide [5]: 173
B12: YDR332W 665-678 (peptide)
chain: SLAPVYPLKSLLRI

normalised SPOT signal, Boehringer light units (BLU); mean over the file's lines of this peptide [1]: 114
normalised SPOT signal, Boehringer light units (BLU); mean over the file's lines of this peptide [2]: 22.9
normalised SPOT signal, Boehringer light units (BLU); mean over the file's lines of this peptide [3]: 29.4
normalised SPOT signal, Boehringer light units (BLU); mean over the file's lines of this peptide [4]: 758
normalised SPOT signal, Boehringer light units (BLU); mean over the file's lines of this peptide [5]: 108
B13: YBR007C 353-366 (peptide)
chain: SLPPTPPYKAHKKK

normalised SPOT signal, Boehringer light units (BLU); mean over the file's lines of this peptide [1]: 83.1
normalised SPOT signal, Boehringer light units (BLU); mean over the file's lines of this peptide [2]: 46.2
normalised SPOT signal, Boehringer light units (BLU); mean over the file's lines of this peptide [3]: 20.5
normalised SPOT signal, Boehringer light units (BLU); mean over the file's lines of this peptide [4]: 126
normalised SPOT signal, Boehringer light units (BLU); mean over the file's lines of this peptide [5]: 93.6
B14: YIR032C 171-184 (peptide)
chain: SLDPDRPEKDSVEE

normalised SPOT signal, Boehringer light units (BLU); mean over the file's lines of this peptide [1]: 105
normalised SPOT signal, Boehringer light units (BLU); mean over the file's lines of this peptide [2]: 32.6
normalised SPOT signal, Boehringer light units (BLU); mean over the file's lines of this peptide [3]: 20.5
normalised SPOT signal, Boehringer light units (BLU); mean over the file's lines of this peptide [4]: 1170
normalised SPOT signal, Boehringer light units (BLU); mean over the file's lines of this peptide [5]: 132
B15: YGR264C 141-154 (peptide)
chain: SKFPELPSKVHNAV

normalised SPOT signal, Boehringer light units (BLU); mean over the file's lines of this peptide [1]: 59.5
normalised SPOT signal, Boehringer light units (BLU); mean over the file's lines of this peptide [2]: 15.4
normalised SPOT signal, Boehringer light units (BLU); mean over the file's lines of this peptide [3]: 17.9
normalised SPOT signal, Boehringer light units (BLU); mean over the file's lines of this peptide [4]: 382
normalised SPOT signal, Boehringer light units (BLU); mean over the file's lines of this peptide [5]: 201
B16: YER087W 333-346 (peptide)
chain: SNFPDFPLKKYLKN

normalised SPOT signal, Boehringer light units (BLU); mean over the file's lines of this peptide [1]: 176
normalised SPOT signal, Boehringer light units (BLU); mean over the file's lines of this peptide [2]: 44.4
normalised SPOT signal, Boehringer light units (BLU); mean over the file's lines of this peptide [3]: 53.9
normalised SPOT signal, Boehringer light units (BLU); mean over the file's lines of this peptide [4]: 380
normalised SPOT signal, Boehringer light units (BLU); mean over the file's lines of this peptide [5]: 0
B17: YDR206W 310-323 (peptide)
chain: SKGPRTPAKEILEF

From paper PMC314469, “Protein Interaction Networks by Proteome Peptide Scanning” (PLoS Biology, 2004)
